Assay [1] deals with GFP-LacI-dCENP-C [Drosophila melanogaster]. Briefly: LacO-tethering recruitment assay (HA immunofluorescence intensity at LacO). The note with it: parent: 1.2; read off a plot.
Assay [2] deals with CAL1-GFP-LacI [Drosophila melanogaster]. The description is as above. The note with it: parent: 0.18; read off a plot.

Consider “HA-dCENP-C mutant L1357E; L1406E [Drosophila melanogaster] / GFP-LacI-dCENP-C [Drosophila melanogaster] chain 1 L1357E, chain 1 L1406E”, for which the response (normalized to GFP) in assay [1] worked out at 0.15.

Take “HA-dCENP-C mutant L1357E; L1406E [Drosophila melanogaster] / CAL1-GFP-LacI [Drosophila melanogaster] chain 1 L1357E, chain 1 L1406E”: the response (normalized to GFP) in assay [2] turned out to be 0.07.

Values taken from publication PMC6900781.
